Assay results: US20230287598A1

B1: VH4-34+CDR3-IL8_CDR1 Cow / V1-51 IgG (antibody, part only)
heavy: QVQLQQWGAGLLKPSETLSLTCTASGFSLSDKAVGWIRQPPGKGLEWIGEINHSGSTNYNPSLKSRVTISVDTSKNQFSLKLSSVTAADTAVYYCTSVHQETKKYQSPRSAKELRCQCIKTYSKPFHPKFIKELRVIESGPHCANTEIIVKLSDGRELCLDPKENWVQRVVEKFLKRAENSGSGSYTYNYEWHVDVWGQGLLVTVSSAS
light: QSVLTQPPSVSAAPGQKVTISCSGSSSNIGNNYVSWYQQLPGTAPKLLIYDNNKRPSGIPDRFSGSKSGTSATLGITGLQTGDEADYYCASAEDSSSNAVFGSGTTLTVLGQPKAAPSVTLFPPSSEELQANKATLVCLISDFYPGAVTVAWKADSSPVKAGVETTTPSKQSNNKYAASSYLSLTPEQWKSHRSYSCQVTHEGSTVEKTVAPTECS
B2: VH4-34+CDR3-IL8_CDR1-Cow_CDR2-E50S_Q5RQ6E / VL1-51 S2A, T5N, P8S, A12G, A13S, P14L, K46R, L47T, D51G, N52D, N53T IgG (antibody)
VH: QVQLREWGAGLLKPSETLSLTCTASGFSLSDKAVGWIRQPPGKGLEWIGSINHSGSTNYNPSLKSRVTISVDTSKNQFSLKLSSVTAADTAVYYCTSVHQETKKYQSPRSAKELRCQCIKTYSKPFHPKFIKELRVIESGPHCANTEIIVKLSDGRELCLDPKENWVQRVVEKFLKRAENSGSGSYTYNYEWHVDVWGQGLLVTVSS
light: QAVLNQPSSVSGSLGQKVTISCSGSSSNIGNNYVSWYQQLPGTAPRTLIYGDTKRPSGIPDRFSGSKSGTSATLGITGLQTGDEADYYCASAEDSSSNAVFGSGTTLTVLGQPKAAPSVTLFPPSSEELQANKATLVCLISDFYPGAVTVAWKADSSPVKAGVETTTPSKQSNNKYAASSYLSLTPEQWKSHRSYSCQVTHEGSTVEKTVAPTECS
B3: VH4-34+CDR3-IL8_CDR2 E50S / VL1-51 S2A, T5N, P8S, A12G, A13S, P14L, D51G, N52D, N53T IgG (antibody)
VH: QVQLQQWGAGLLKPSETLSLTCAVYGGSFSGYYWSWIRQPPGKGLEWIGSINHSGSTNYNPSLKSRVTISVDTSKNQFSLKLSSVTAADTAVYYCTSVHQETKKYQSPRSAKELRCQCIKTYSKPFHPKFIKELRVIESGPHCANTEIIVKLSDGRELCLDPKENWVQRVVEKFLKRAENSGSGSYTYNYEWHVDVWGQGLLVTVSSAS
light: QAVLNQPSSVSGSLGQKVTISCSGSSSNIGNNYVSWYQQLPGTAPKLLIYGDTKRPSGIPDRFSGSKSGTSATLGITGLQTGDEADYYCASAEDSSSNAVFGSGTTLTVLGQPKAAPSVTLFPPSSEELQANKATLVCLISDFYPGAVTVAWKADSSPVKAGVETTTPSKQSNNKYAASSYLSLTPEQWKSHRSYSCQVTHEGSTVEKTVAPTECS
B4: VH4-34+CDR3-IL8_CDR1 Cow_CDR2 Cow / V1-47 IgG (antibody, part only; not given: V1-47 light chain, part only)
VH: QVQLQQWGAGLLKPSETLSLTCTASGFSLSDKAVGWIRQPPGKGLEWLGSIDTGGNTGYNPSLKSRVTISVDTSKNQFSLKLSSVTAADTAVYYCTSVHQETKKYQSPRSAKELRCQCIKTYSKPFHPKFIKELRVIESGPHCANTEIIVKLSDGRELCLDPKENWVQRVVEKFLKRAENSGSGSYTYNYEWHVDVWGQGLLVTVSSAS
B5: VH4-34+CDR3-IL8_CDR1 G31D,Y32K / V1-47 IgG (antibody, part only; not given: V1-47 light chain, part only)
VH: QVQLQQWGAGLLKPSETLSLTCAVYGGSFSDKYWSWIRQPPGKGLEWIGEINHSGSTNYNPSLKSRVTISVDTSKNQFSLKLSSVTAADTAVYYCTSVHQETKKYQSPRSAKELRCQCIKTYSKPFHPKFIKELRVIESGPHCANTEIIVKLSDGRELCLDPKENWVQRVVEKFLKRAENSGSGSYTYNYEWHVDVWGQGLLVTVSSAS
B6: VH4-34+CDR3-IL8_CDR2 E50S / V1-47 IgG (antibody, part only; not given: V1-47 light chain, part only)
VH: QVQLQQWGAGLLKPSETLSLTCAVYGGSFSGYYWSWIRQPPGKGLEWIGSINHSGSTNYNPSLKSRVTISVDTSKNQFSLKLSSVTAADTAVYYCTSVHQETKKYQSPRSAKELRCQCIKTYSKPFHPKFIKELRVIESGPHCANTEIIVKLSDGRELCLDPKENWVQRVVEKFLKRAENSGSGSYTYNYEWHVDVWGQGLLVTVSSAS
B7: VH4-34+CDR3-IL8_CDR1 Cow_CDR2 E50S / V1-51 IgG (antibody, part only; not given: V1-51 light chain, part only)
VH: QVQLQQWGAGLLKPSETLSLTCTASGFSLSDKAVGWIRQPPGKGLEWIGSINHSGSTNYNPSLKSRVTISVDTSKNQFSLKLSSVTAADTAVYYCTSVHQETKKYQSPRSAKELRCQCIKTYSKPFHPKFIKELRVIESGPHCANTEIIVKLSDGRELCLDPKENWVQRVVEKFLKRAENSGSGSYTYNYEWHVDVWGQGLLVTVSSAS
B8: VH4-34+CDR3-IL8 / V1-47 IgG (antibody, part only; not given: V1-47 light chain, part only)
VH: QVQLQQWGAGLLKPSETLSLTCAVYGGSFSGYYWSWIRQPPGKGLEWIGEINHSGSTNYNPSLKSRVTISVDTSKNQFSLKLSSVTAADTAVYYCTSVHQETKKYQSPRSAKELRCQCIKTYSKPFHPKFIKELRVIESGPHCANTEIIVKLSDGRELCLDPKENWVQRVVEKFLKRAENSGSGSYTYNYEWHVDVWGQGLLVTVSSAS
B9: VH4-34+CDR3-IL8_CDR1 Cow / V1-47 IgG (antibody, part only; not given: V1-47 light chain, part only)
VH: QVQLQQWGAGLLKPSETLSLTCTASGFSLSDKAVGWIRQPPGKGLEWIGEINHSGSTNYNPSLKSRVTISVDTSKNQFSLKLSSVTAADTAVYYCTSVHQETKKYQSPRSAKELRCQCIKTYSKPFHPKFIKELRVIESGPHCANTEIIVKLSDGRELCLDPKENWVQRVVEKFLKRAENSGSGSYTYNYEWHVDVWGQGLLVTVSSAS
B10: VH4-34+CDR3-IL8_CDR1 G31D,Y32K_CDR2 E50S / V1-47 IgG (antibody, part only; not given: V1-47 light chain, part only)
VH: QVQLQQWGAGLLKPSETLSLTCAVYGGSFSDKYWSWIRQPPGKGLEWIGSINHSGSTNYNPSLKSRVTISVDTSKNQFSLKLSSVTAADTAVYYCTSVHQETKKYQSPRSAKELRCQCIKTYSKPFHPKFIKELRVIESGPHCANTEIIVKLSDGRELCLDPKENWVQRVVEKFLKRAENSGSGSYTYNYEWHVDVWGQGLLVTVSSAS
B11: VH4-34+CDR3-IL8_CDR1 G31D,Y32K_CDR2 E50S / V1-51 IgG (antibody, part only; not given: V1-51 light chain, part only)
VH: QVQLQQWGAGLLKPSETLSLTCAVYGGSFSDKYWSWIRQPPGKGLEWIGSINHSGSTNYNPSLKSRVTISVDTSKNQFSLKLSSVTAADTAVYYCTSVHQETKKYQSPRSAKELRCQCIKTYSKPFHPKFIKELRVIESGPHCANTEIIVKLSDGRELCLDPKENWVQRVVEKFLKRAENSGSGSYTYNYEWHVDVWGQGLLVTVSSAS
B12: VH4-34+CDR3-IL8_CDR1 G31D,Y32K / V1-51 IgG (antibody, part only)
heavy: QVQLQQWGAGLLKPSETLSLTCAVYGGSFSDKYWSWIRQPPGKGLEWIGEINHSGSTNYNPSLKSRVTISVDTSKNQFSLKLSSVTAADTAVYYCTSVHQETKKYQSPRSAKELRCQCIKTYSKPFHPKFIKELRVIESGPHCANTEIIVKLSDGRELCLDPKENWVQRVVEKFLKRAENSGSGSYTYNYEWHVDVWGQGLLVTVSSAS
light: QSVLTQPPSVSAAPGQKVTISCSGSSSNIGNNYVSWYQQLPGTAPKLLIYDNNKRPSGIPDRFSGSKSGTSATLGITGLQTGDEADYYCASAEDSSSNAVFGSGTTLTVLGQPKAAPSVTLFPPSSEELQANKATLVCLISDFYPGAVTVAWKADSSPVKAGVETTTPSKQSNNKYAASSYLSLTPEQWKSHRSYSCQVTHEGSTVEKTVAPTECS
B13: VH4-34+CDR3-IL8_CDR2 Cow / V1-47 IgG (antibody, part only; not given: V1-47 light chain, part only)
VH: QVQLQQWGAGLLKPSETLSLTCAVYGGSFSGYYWSWIRQPPGKGLEWLGSIDTGGNTGYNPSLKSRVTISVDTSKNQFSLKLSSVTAADTAVYYCTSVHQETKKYQSPRSAKELRCQCIKTYSKPFHPKFIKELRVIESGPHCANTEIIVKLSDGRELCLDPKENWVQRVVEKFLKRAENSGSGSYTYNYEWHVDVWGQGLLVTVSSAS
B14: VH4-34+CDR3-IL8 / V1-51 IgG (antibody, part only; not given: V1-51 light chain, part only)
VH: QVQLQQWGAGLLKPSETLSLTCAVYGGSFSGYYWSWIRQPPGKGLEWIGEINHSGSTNYNPSLKSRVTISVDTSKNQFSLKLSSVTAADTAVYYCTSVHQETKKYQSPRSAKELRCQCIKTYSKPFHPKFIKELRVIESGPHCANTEIIVKLSDGRELCLDPKENWVQRVVEKFLKRAENSGSGSYTYNYEWHVDVWGQGLLVTVSSAS
B15: VH4-34+CDR3-IL8_CDR2 E50S / V1-51 IgG (antibody, part only; not given: V1-51 light chain, part only)
VH: QVQLQQWGAGLLKPSETLSLTCAVYGGSFSGYYWSWIRQPPGKGLEWIGSINHSGSTNYNPSLKSRVTISVDTSKNQFSLKLSSVTAADTAVYYCTSVHQETKKYQSPRSAKELRCQCIKTYSKPFHPKFIKELRVIESGPHCANTEIIVKLSDGRELCLDPKENWVQRVVEKFLKRAENSGSGSYTYNYEWHVDVWGQGLLVTVSSAS
B16: VH4-34+CDR3-IL8_CDR1 Cow_CDR2 E50S / V1-47 IgG (antibody, part only; not given: V1-47 light chain, part only)
VH: QVQLQQWGAGLLKPSETLSLTCTASGFSLSDKAVGWIRQPPGKGLEWIGSINHSGSTNYNPSLKSRVTISVDTSKNQFSLKLSSVTAADTAVYYCTSVHQETKKYQSPRSAKELRCQCIKTYSKPFHPKFIKELRVIESGPHCANTEIIVKLSDGRELCLDPKENWVQRVVEKFLKRAENSGSGSYTYNYEWHVDVWGQGLLVTVSSAS
B17: VH4-34+CDR3-IL8_CDR2 Cow / V1-51 IgG (antibody, part only; not given: V1-51 light chain, part only)
VH: QVQLQQWGAGLLKPSETLSLTCAVYGGSFSGYYWSWIRQPPGKGLEWLGSIDTGGNTGYNPSLKSRVTISVDTSKNQFSLKLSSVTAADTAVYYCTSVHQETKKYQSPRSAKELRCQCIKTYSKPFHPKFIKELRVIESGPHCANTEIIVKLSDGRELCLDPKENWVQRVVEKFLKRAENSGSGSYTYNYEWHVDVWGQGLLVTVSSAS

What follows are binders tested against CXCR1 (UniProt P25024) (assay: flow cytometry, 10 nM IgG, 2 ug/ml heparin sulfate, CXCR1-U2OS / parental U2OS).
CXCR1, sequence (P25024 whole entry): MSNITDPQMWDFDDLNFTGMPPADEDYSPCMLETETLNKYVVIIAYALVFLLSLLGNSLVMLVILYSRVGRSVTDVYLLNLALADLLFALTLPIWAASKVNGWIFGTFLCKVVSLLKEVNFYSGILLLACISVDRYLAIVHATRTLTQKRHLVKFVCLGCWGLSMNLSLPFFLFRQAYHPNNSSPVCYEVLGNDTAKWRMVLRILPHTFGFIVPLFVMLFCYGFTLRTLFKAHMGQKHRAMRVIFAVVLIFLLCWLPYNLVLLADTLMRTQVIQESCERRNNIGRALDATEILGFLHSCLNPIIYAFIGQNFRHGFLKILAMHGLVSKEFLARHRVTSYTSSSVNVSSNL
In the case of B1, the CXCR1 specificity (CXCR1/parental ratio) is reported as 7.2.

What follows are binders tested against CXCR1 (UniProt P25024) (assay: flow cytometry, supernatant at 5 nM IgG).
Work on B2 yielded a Specific Binding (CXCR1-Cell median AFU / Parental Cell median AFU) of 2. Binder B3 has a Specific Binding (CXCR1-Cell median AFU / Parental Cell median AFU) of 2.

Each binder was assayed against CXCR1 (UniProt P25024) (assay: flow cytometry, CXCR1-U2OS / parental U2OS).
With B4 the CXCR1/Parental Ratio was 4.6. In the case of B5, the CXCR1/Parental Ratio is reported as 3.6. B6 gave a CXCR1/Parental Ratio of 3.3. Work on B7 yielded a CXCR1/Parental Ratio of 3.1. Binder B8 has a CXCR1/Parental Ratio of 2.6. Work on B9 yielded a CXCR1/Parental Ratio of 5.1. Work on B10 yielded a CXCR1/Parental Ratio of 1.4. Work on B11 yielded a CXCR1/Parental Ratio of 3. Work on B12 yielded a CXCR1/Parental Ratio of 3. In the case of B13, the CXCR1/Parental Ratio is reported as 2.5. In the case of B14, the CXCR1/Parental Ratio is reported as 2.9. B15 showed a CXCR1/Parental Ratio of 1.8. Binder B16 has a CXCR1/Parental Ratio of 2.6. B17 showed a CXCR1/Parental Ratio of 3.9. Binder B1 has a CXCR1/Parental Ratio of 2.4.
